Values quoted from earlier work in paper PMC11641302.

What was measured:
Nterm1 [1] = biological target: Nterm1 (UniProt position 2, ----MPLLKFD)
Nterm1 [2] = biological target: Nterm1 (UniProt position 2, ----MPVYMVY)

Substance | pKa (Nterm1 [1]) | pKa (Nterm1 [2])
malonate semialdehyde decarboxylase (MSAD) (Pseudomonas pavonaceae) | ~9.2 | 
cis-3-chloroacrylic acid dehalogenase (cis-CaaD) (Coryneform bacterium) |  | ~9.3
